Paper PMC6439349

Legend:
TioK [1] = experiment: AUC
[2] = molecular target: TioK-Ecm8 complex (not stated | Streptomyces lasaliensis); experiment: AUC
[3] = molecular target: TioK-KtzJ complex (not stated | Kutzneria sp. 744); experiment: AUC
[4] = molecular target: TioK-MbtH complex (not stated | Mycobacterium tuberculosis H37Rv) (UniProt P9WIP4); experiment: […]
[5] = molecular target: TioK-MyabAaA complex (not stated | Mycobacterium abscessus); experiment: AUC
[6] = molecular target: TioK-MyavAcA complex (not stated | Mycobacterium avium); experiment: AUC
[7] = molecular target: TioK-MymaAcA complex (not stated | Mycobacterium marinum); experiment: AUC
[8] = molecular target: TioK-MypaAaA complex (not stated | Mycobacterium paratuberculosis); experiment: AUC
TioK-TioT complex = TioK-TioT complex (UniProt Q333U6); experiment: AUC
TioK [9] = experiment: […]

Molecule | approximate mole fraction of TioK-MLP complex (TioK [1]) | stoichiometry N (TioK [1]) | other results
Ecm8 (natural protein) | 0.76 | 1 MLP per TioK | 
KtzJ (natural protein) | 0.92 | 1 MLP per TioK | 
PA2412 (from UniProt Q9I169 1-72) (natural protein) | 0.87 | 1 MLP per TioK | 
TioK-Ecm8 complex |  |  | stoichiometry N (multiple of MW(1:1)) [2]: 1.93
TioK-KtzJ complex |  |  | stoichiometry N (multiple of MW(1:1)) [3]: 1.92
TioK-MbtH complex (from UniProt P9WIP4 1-71) |  |  | stoichiometry N (multiple of MW(1:1)) [4]: 2.06
TioK-MyabAaA complex |  |  | stoichiometry N (multiple of MW(1:1)) [5]: 1.96
TioK-MyavAcA complex |  |  | stoichiometry N (multiple of MW(1:1)) [6]: 1.96
TioK-MymaAcA complex |  |  | stoichiometry N (multiple of MW(1:1)) [7]: 1.94
TioK-MypaAaA complex |  |  | stoichiometry N (multiple of MW(1:1)) [8]: 2.05
TioK-TioT complex (from UniProt Q333U6 1-71) |  |  | stoichiometry N (multiple of MW(1:1)) (TioK-TioT complex): 1.98
CouY (natural protein) MATNPFDDENGVYLLLVNDEGQHSLWPSFAALPKGWTVILDEASRQECLDYVNEHWTDMRPLSLQPAMGDE | 0.84 | 1 MLP per TioK | 
MbtH (natural protein) MSTNPFDDDNGAFFVLVNDEDQHSLWPVFADIPAGWRVVHGEASRAACLDYVEKNWTDLRPKSLRDAMAED |  |  | approximate mole fraction of TioK-MLP complex (TioK [9]): 0.82; stoichiometry N (TioK [9]): 1 MLP per TioK
TioT (natural protein) MSVNPFDDEDGEFYVLVNDEEQHSLWPTFGDVPDGWRIVFGPAGRAESVAYVEENWTDMRPKSLREAMSAA | 0.88 | 1 MLP per TioK | 
